Columns and labels:
RyR2 and Cav1.2 = assay: Coimmunoprecipitation with E-C coupling channels; format: binding, mouse; conditions: anti-HA immunoprecipitation
Description: FIGS. 5A-H. JP2 truncations are nonfunctional in regulating Ca^2+ transients. A) An antibody against the HA tag was used to reveal the localization of adenoviral expression of tagged full-length JP2 and truncations, as indicated, in adult wild-type cardiomyocytes. All the three version of JP2 can be localized in the striated pattern. B) Full-length JP2 and JP2(1-565) forms complexes with RyR2 and Cav1.2 In vivo. An antibody against HA was used for immunoprecipitation […]. The RyR2 and Cav1.2 that were pulled down were detected by Western blot analysis. […] IB, immunoblot. C) Adenovirus-mediated expression of full-length JP2, FLAG-JP2(1-565)-HA, and JP2(566-end)-HA in JP2-KD) cardiomyocytes. D) Representative steady-state Ca^2+ transients under 1-Hz field stimulation. The fluorescence intensity (F) of Ca^2+ imaging was normalized to the baseline (FO). The red lines overlapping on Ca^2+ imaging show the profile of the moment of Ca^2+ transient firing on the scanning line in a point-by-point way. A straighter line means better synchronization of the Ca^2+ transients. Note that expression of full-length JP2, but not JP2 truncations, improves the amplitude and synchronization of Ca^2+ transients. E-G) Summary of Ca^2+ transient amplitude, index of desynchronization (mean absolute deviation of firing time), and duration of 50% decay (T5) (n=68, 70, 70, and 52 for Ad-Empty, Ad-JP2, […], and Ad-JP2(566-end), respectively). Only full-length JP2 Improves the amplitude, synchronization, and decay of Ca^2+ transients. H) Summary of SR Ca^2+ content, which was assessed by caffeine-induced SR Ca^2+ release (n=17, 17, 17, and 12 for Ad-Empty, Ad-JP2, Ad-JP2(1-565), and Ad-JP2(566-end), respectively). **, p<0.01 versus indicated groups; N.S., not significant.
Cleavage at the primary calpain proteolysis site (Arg-565/Thr-566) splits apart the C-terminal SR-binding TM domain and N-terminal plasma membrane-binding MORN domains of JP2. […]

[1] = system: promoters of Myc, KLF6, TGFβR1 and NFKBIA; assay: Promoter luciferase reporter assay; format: cell-based; conditions: co-expression; vs empty vector control
Experimental: (§1) Firefly and Renilla reporter plasmids and JP2NT variants were co-transfected into HEK293 cells. The protein of the cells was harvested 48 hours after transfection. Promega dual luciferase system was used to evaluate the luciferase activity.
To further test whether JP2NT regulates transcription of these genes, luciferase reporters controlled by promoters of Myc, KLF6, TGFβR1 and NFKBIA were constructed.

JP2-KD cardiomyocytes = assay: Confocal Ca2+ imaging in JP2-KD cardiomyocytes after adenoviral expression; format: cell-based, mouse; conditions: 1-Hz field stimulation
Description: Specifically, conditional shJP2 mice (provided by Dr. Wehrens) (van Oort et al., 2011) were crossed with mice carrying the cardiac-specific α-myosin heavy chain promoter upstream of Cre (% MHC-Cre, also FVB-Tg(Myh6-cre)2182Mds/J, The Jackson Laboratory). The shJP2 mice were maintained on a C57BL/6 background for more than 10 generations. The αMHC-Cre mice were maintained on an FVB background. PCR was used to genotype the offspring. The near complete depletion of JP2 protein in JP2-KD (αMHC-Cre X shJP2) hearts has been reported recently (Chen et al., 2013). JP2-KD mice were sacrificed at 2 months of age for isolation and culture of ventricular cardiomyocytes as described below.
Genecarrior-1 (Epoch Lab) was used to transfect plasmids into HEK293T cells. Isolation and culture of cardiomyocytes were performed as described previously (Guo et al., 2012). […] Ca^2+ Imaging experiments were performed 40 hours after adenoviral infection.
Cells were loaded with Rhod-2AM at 37° C. for 20 minutes, followed by washing with Tyrode's solution at room temperature for 15 minutes before Ca^2+ imaging. Confocal images were acquired using a ×63, 1.3 numerical aperture oil immersion objective mounted on a Zeiss LSM 510 confocal microscope. Confocal line scanning was used to record Ca^2+ signals. Steady-state Ca^2+ transients were recorded in Tyrode's solution containing 1.8 mM Ca^2+ under field stimulation of 1 Hz. At least five steady-state transients for each cell were analyzed and averaged to represent Ca^2+ signals of the cell. Ca^2+ imaging data were analyzed by using a home-complied software, CaTeasy, which is coded in MATLAB 2013a (Mathworks). Briefly, the program normalizes Ca^2+ transient images on a column-by-column basis (512 columns/image). The characteristic parameters of normalized transients were detected automatically. The firing time of every scanning pixel was detected column by column on the basis of the maximum local variability of pixel intensity. The profile of the point-to-point firing time was indicated by a red line overlapping on the Ca^2+ image. Index of desynchronization, defined by the mean absolute deviation of firing time of each scanning pixel (with every 8 pixels binned), was used to evaluate the dyssynchrony of Ca^2+ transients. This automated software for calcium transient analysis is available upon request.

[2] = system: MEF2C-mediated transcriptional activity; assay: MEF2 luciferase reporter assay; format: cell-based; conditions: 293 cells co-transfected with MEF2C and PMEF2-firefly, relative to PSV40-Renilla
Experimental: as §1
To examine whether JP2NT regulates MEF2-mediated transcription, a luciferase reporter system with firefly cDNA driven by the desmin enhancer-derived MEF2 binding site (PMEF2-firefly) (Naya et al., 1999) was used.

genomic DNA = assay: ChIP-seq of JP2NT-OE hearts; format: binding, mouse; conditions: anti-HA ChIP-seq
Experimental: ChIP-seq from transgenic myocardium was performed using the antibody against HA-tag, which pulls down the HA-tagged JP2NT. Sequencing libraries were prepared for the pulled-down DNA and input DNA (randomly fragmented genomic DNA), and then were subjected to Illumina sequencing (NextSeq 500 platform, 75 bp single end reads). The quality of sequencing reads was evaluated by FastQC (version 0.11.3) software (http://www.bioinformatics.babraham.ac.uk/projects/fastqc/) and the sequencing adaptor was trimmed by Cutadapt (version 1.8.1) software (Martin, 2011). Processed sequencing reads were aligned to mouse genome (mm10) by Bowtie 2 (version 2.2.5) software (Langmead et al., 2012) with the “-end-to-end” mode. MACS (version 1.4.2) software […] was used to call enriched peaks (the cutoff of significance was p value<1e-10). Homer (version 4.8.3) software (Heinz et al., 2010) was used to analyze the enriched genomic features of peaks, identify the target genes, and search the binding motifs.

B1: JP2NT: shorter form of Junctophilin-2 including the first 565 amino acids of N-terminus of JP2 (protein, UniProt Q9BR39 1-565, looked up, fragment)
chain: MSGGRFDFDDGGAYCGGWEGGKAHGHGLCTGPKGQGEYSGSWNFGFEVAGVYTWPSGNTFEGYWSQGKRHGLGIETKGRWLYKGEWTHGFKGRYGIRQSSSSGAKYEGTWNNGLQDGYGTETYADGGTYQGQFTNGMRHGYGVRQSVPYGMAVVVRSPLRTSLSSLRSEHSNGTVAPDSPASPASDGPALPSPAIPRGGFALSLLANAEAAARAPKGGGLFQRGALLGKLRRAESRTSVGSQRSRVSFLKSDLSSGASDAASTASLGEAAEGADEAAPFEADIDATTTETYMGEWKNDKRSGFGVSERSSGLRYEGEWLDNLRHGYGCTTLPDGHREEGKYRHNVLVKDTKRRMLQLKSNKVRQKVEHSVEGAQRAAAIARQKAEIAASRTSHAKAKAEAAEQAALAANQESNIARTLARELAPDFYQPGPEYQKRRLLQEILENSESLLEPPDRGAGAAGLPQPPRESPQLHERETPRPEGGSPSPAGTPPQPKRPRPGVSKDGLLSPGAWNGEPSGEGSRSVTPSEGAGRRSPARPATERMAIEALQAPPAPSREPEVALYQG
modifications: GST or adenoviral forms
notes: shorter form of Junctophilin-2 including the first 565 amino acids of N-terminus of JP2
- interaction with RyR2 and Cav1.2 (RyR2 and Cav1.2): interact
- promoter activity (firefly luciferase) [1]: significantly attenuated
- restoration of Ca2+ transients (JP2-KD cardiomyocytes): failed to restore
- MEF2-responsive luciferase signal [2]: attenuated the MEF2-responsive signal in a dose-dependent manner
- JP2NT-binding genomic DNA regions (p<10^−10) (genomic DNA): 18,242
- genes encompassed by JP2NT-binding regions (genomic DNA): 10,587 genes
